These results are taken from article PMC2853136 (Nucleic Acids Research, 2010).

Sequences and labels used below:
B1: GST-HuR (134–326) (domain or fragment, UniProt Q15717 134-326, looked up)
chain: NSRVLVDQTTGLSRGVAFIRFDKRSEAEEAITSFNGHKPPGSSEPITVKFAANPNQNKNVALLSQLYHSPARRFGGPVHHQAQRFRFSPMGVDHMSGLSGVNVPGNASSGWCIFIYNLGQDADEGILWQMFGPFGAVTNVKVIRDFNTNKCKGFGFVTMTNYEEAAMAIASLNGYRLGDKILQVSFKTNKSHK
B2: GST-RNPC1a (natural protein, UniProt Q9H0Z9-1 1-239, looked up)
chain: MLLQPAPCAPSAGFPRPLAAPGAMHGSQKDTTFTKIFVGGLPYHTTDASLRKYFEGFGDIEEAVVITDRQTGKSRGYGFVTMADRAAAERACKDPNPIIDGRKANVNLAYLGAKPRSLQTGFAIGVQQLHPTLIQRTYGLTPHYIYPPAIVQPSVVIPAAPVPSLSSPYIEYTPASPAYAQYPPATYDQYPYAASPATAASFVGYSYPAAVPQALSAAAPAGTTFVQYQAPQLQPDRMQ
B3: His-tagged RNPC1a (recombinant) (natural protein, UniProt Q9H0Z9-1 1-239, looked up)
chain: B2 chain
B4: GST-HuR (183–326) (domain or fragment, UniProt Q15717 183-326, looked up)
chain: FAANPNQNKNVALLSQLYHSPARRFGGPVHHQAQRFRFSPMGVDHMSGLSGVNVPGNASSGWCIFIYNLGQDADEGILWQMFGPFGAVTNVKVIRDFNTNKCKGFGFVTMTNYEEAAMAIASLNGYRLGDKILQVSFKTNKSHK
B5: GST-HuR (Δ95-244) (natural protein, UniProt Q15717 1-326, looked up)
chain: MSNGYEDHMAEDCRGDIGRTNLIVNYLPQNMTQDELRSLFSSIGEVESAKLIRDKVAGHSLGYGFVNYVTAKDAERAINTLNGLRLQSKTIKVSCIFIYNLGQDADEGILWQMFGPFGAVTNVKVIRDFNTNKCKGFGFVTMTNYEEAAMAIASLNGYRLGDKILQVSFKTNKSHK

Holding throughout (test): pull-down
Assay [1] has as its target B3.
Assay [2] deals with His-tagged HuR (recombinant) (UniProt Q15717 1-326).
For the next assay, the target named is GST-HuR (1–326) (UniProt Q15717 1-326).

Turning to B1, in assay [1], the binding result is “binds”. For the molecule B2, the binding result in assay [2] is “binds”. Turning to B3, the binding result in the assay with GST-HuR (1–326) is recorded as “binds”.

For the molecule B4, the binding result in assay [1] was “binds”. Same read-out and setting: next, B5: “binds”.
